Residue numbers refer to the chain shown, from its start. Values belong to the binder of their own block, whether it stands above or below them.
Molecular target: CD3ε homodimer protein (human, UniProt P07766 23-126, limits assumed)
Assay: SPR, immobilized CD3ε homodimer;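 note: biacore T200 surface plasmon resonance at 25 °C, antibody variants flowed as analytes over amine-coupled CD3ε homodimer on a CM4 chip, variant binding amount divided by that of GLS3000 antibody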
Protocol: Each one-amino acid altered form constructed, expressed, and purified in the paragraph (6-2) was evaluated using Biacore T200 (GE Healthcare Japan Corp.). An appropriate amount of CD3ε homodimer protein was immobilized onto Sensor chip CM4 (GE Healthcare Japan Corp.) by the amine coupling method. Then, the antibody having an appropriate concentration was injected thereto as an analyte and allowed to interact with the CD3ε homodimer protein on the sensor chip. Then, the sensor chip was regenerated by the injection of 10 mmol/L glycine-HCl (pH 1.5). The assay was conducted at 25° C., and HBS-EP+ (GE Healthcare Japan Corp.) was used as a running buffer. […] Each parameter was calculated using Biacore T200 Evaluation Software (GE Healthcare Japan Corp.).
Specifically, when the amount of the GLS3000-containing antibody bound was defined as X and the amount of the L chain one-amino acid altered form bound was defined as Y, a value of Z (ratio of amounts bound)=Y/X was used.

CD3ε homodimer protein, sequence (P07766 23-126 limits assumed): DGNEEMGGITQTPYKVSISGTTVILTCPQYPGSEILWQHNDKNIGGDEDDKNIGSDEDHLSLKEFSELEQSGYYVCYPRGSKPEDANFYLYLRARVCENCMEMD

ratio of amounts bound (vs GLS3000): 0.26
B1: GLS3000 L27bW (antibody, name in Kabat numbering, V domains shown)
VH: QVQLVESGGGVVQPGRSLRLSCAASGFTFSNAWMHWVRQAPGKGLEWVAQIKAKSNNYATYYAESVKGRFTISRDDSKNSLYLQMNSLKTEDTAVYYCRYVHYGAYYGVDAWGQGTTVTVSS
VL: DIVMTQSPLSLPVTPGEPASISCRSSQSWVHSNRNTYLHWYQQKPGQAPRLLIYKVSNRFSGVPDRFSGSGSGTDFTLKISRVEAEDVGVYYCGQGTQVPYTFGQGTKLEIK
notes: one-arm format as m2

ratio of amounts bound (vs GLS3000): 0.61
B2: GLS3000 N30I (antibody, name in Kabat numbering, V domains shown)
VH: B1 VH
VL: B1 VL with W29L, N35I
notes: one-arm format as m2

ratio of amounts bound (vs GLS3000): 0.46
B3: GLS3000 N28F (antibody, name in Kabat numbering, V domains shown)
VH: B1 VH
VL: B1 VL with W29L, N33F
notes: one-arm format as m2

ratio of amounts bound (vs GLS3000): 0.44
B4: GLS3000 N28K (antibody, name in Kabat numbering, V domains shown)
VH: B1 VH
VL: B1 VL with W29L, N33K
notes: one-arm format as m2

ratio of amounts bound (vs GLS3000): 0.83
B5: GLS3000 L33I (antibody, name in Kabat numbering, V domains shown)
VH: B1 VH
VL: B1 VL with W29L, L38I
notes: one-arm format as m2

ratio of amounts bound (vs GLS3000): 0.4
B6: GLS3000 N28E (antibody, name in Kabat numbering, V domains shown)
VH: B1 VH
VL: B1 VL with W29L, N33E
notes: one-arm format as m2

ratio of amounts bound (vs GLS3000): 1.04
B7: GLS3000 N30Y (antibody, name in Kabat numbering, V domains shown)
VH: B1 VH
VL: B1 VL with W29L, N35Y
notes: one-arm format as m2

ratio of amounts bound (vs GLS3000): 0.29
B8: GLS3000 N30T (antibody, name in Kabat numbering, V domains shown)
VH: B1 VH
VL: B1 VL with W29L, N35T
notes: one-arm format as m2

ratio of amounts bound (vs GLS3000): 0.44
B9: GLS3000 N30E (antibody, name in Kabat numbering, V domains shown)
VH: B1 VH
VL: B1 VL with W29L, N35E
notes: one-arm format as m2

ratio of amounts bound (vs GLS3000): 0.87
B10: GLS3000 N30Q (antibody, name in Kabat numbering, V domains shown)
VH: B1 VH
VL: B1 VL with W29L, N35Q
notes: one-arm format as m2

ratio of amounts bound (vs GLS3000): 0.98
B11: GLS3000 N30H (antibody, name in Kabat numbering, V domains shown)
VH: B1 VH
VL: B1 VL with W29L, N35H
notes: one-arm format as m2

ratio of amounts bound (vs GLS3000): 0.93
B12: GLS3000 L33M (antibody, name in Kabat numbering, V domains shown)
VH: B1 VH
VL: B1 VL with W29L, L38M
notes: one-arm format as m2

ratio of amounts bound (vs GLS3000): 1.86
B13: GLS3000 N30R (antibody, name in Kabat numbering, V domains shown)
VH: B1 VH
VL: B1 VL with W29L, N35R
notes: one-arm format as m2

ratio of amounts bound (vs GLS3000): 0.3
B14: GLS3000 L33P (antibody, name in Kabat numbering, V domains shown)
VH: B1 VH
VL: B1 VL with W29L, L38P
notes: one-arm format as m2

ratio of amounts bound (vs GLS3000): 0.31
B15: GLS3000 N30P (antibody, name in Kabat numbering, V domains shown)
VH: B1 VH
VL: B1 VL with W29L, N35P
notes: one-arm format as m2

ratio of amounts bound (vs GLS3000): 0.8
B16: GLS3000 N30M (antibody, name in Kabat numbering, V domains shown)
VH: B1 VH
VL: B1 VL with W29L, N35M
notes: one-arm format as m2

ratio of amounts bound (vs GLS3000): 0.32
B17: GLS3000 N28S (antibody, name in Kabat numbering, V domains shown)
VH: B1 VH
VL: B1 VL with W29L, N33S
notes: one-arm format as m2

ratio of amounts bound (vs GLS3000): 1.65
B18: GLS3000 N30K (antibody, name in Kabat numbering, V domains shown)
VH: B1 VH
VL: B1 VL with W29L, N35K
notes: one-arm format as m2

ratio of amounts bound (vs GLS3000): 0.19
B19: GLS3000 N28D (antibody, name in Kabat numbering, V domains shown)
VH: B1 VH
VL: B1 VL with W29L, N33D
notes: one-arm format as m2

ratio of amounts bound (vs GLS3000): 0.39
B20: GLS3000 N28M (antibody, name in Kabat numbering, V domains shown)
VH: B1 VH
VL: B1 VL with W29L, N33M
notes: one-arm format as m2

ratio of amounts bound (vs GLS3000): 0.72
B21: GLS3000 L33E (antibody, name in Kabat numbering, V domains shown)
VH: B1 VH
VL: B1 VL with W29L, L38E
notes: one-arm format as m2

ratio of amounts bound (vs GLS3000): 0.78
B22: GLS3000 L33F (antibody, name in Kabat numbering, V domains shown)
VH: B1 VH
VL: B1 VL with W29L, L38F
notes: one-arm format as m2

ratio of amounts bound (vs GLS3000): 0.61
B23: GLS3000 N30V (antibody, name in Kabat numbering, V domains shown)
VH: B1 VH
VL: B1 VL with W29L, N35V
notes: one-arm format as m2

ratio of amounts bound (vs GLS3000): 0.29
B24: GLS3000 N30S (antibody, name in Kabat numbering, V domains shown)
VH: B1 VH
VL: B1 VL with W29L, N35S
notes: one-arm format as m2

ratio of amounts bound (vs GLS3000): 0.45
B25: GLS3000 N28T (antibody, name in Kabat numbering, V domains shown)
VH: B1 VH
VL: B1 VL with W29L, N33T
notes: one-arm format as m2

ratio of amounts bound (vs GLS3000): 0.47
B26: GLS3000 N30G (antibody, name in Kabat numbering, V domains shown)
VH: B1 VH
VL: B1 VL with W29L, N35G
notes: one-arm format as m2

ratio of amounts bound (vs GLS3000): 0.46
B27: GLS3000 N28G (antibody, name in Kabat numbering, V domains shown)
VH: B1 VH
VL: B1 VL with W29L, N33G
notes: one-arm format as m2

ratio of amounts bound (vs GLS3000): 0.44
B28: GLS3000 N28I (antibody, name in Kabat numbering, V domains shown)
VH: B1 VH
VL: B1 VL with W29L, N33I
notes: one-arm format as m2

ratio of amounts bound (vs GLS3000): 0.7
B29: GLS3000 N30L (antibody, name in Kabat numbering, V domains shown)
VH: B1 VH
VL: B1 VL with W29L, N35L
notes: one-arm format as m2

ratio of amounts bound (vs GLS3000): 0.25
B30: GLS3000 L27bY (antibody, name in Kabat numbering, V domains shown)
VH: B1 VH
VL: B1 VL with W29Y
notes: one-arm format as m2

ratio of amounts bound (vs GLS3000): 0.36
B31: GLS3000 N28P (antibody, name in Kabat numbering, V domains shown)
VH: B1 VH
VL: B1 VL with W29L, N33P
notes: one-arm format as m2

ratio of amounts bound (vs GLS3000): 0.41
B32: GLS3000 N28W (antibody, name in Kabat numbering, V domains shown)
VH: B1 VH
VL: B1 VL with W29L, N33W
notes: one-arm format as m2

ratio of amounts bound (vs GLS3000): 0.85
B33: GLS3000 L33A (antibody, name in Kabat numbering, V domains shown)
VH: B1 VH
VL: B1 VL with W29L, L38A
notes: one-arm format as m2

ratio of amounts bound (vs GLS3000): 0.99
B34: GLS3000 N30W (antibody, name in Kabat numbering, V domains shown)
VH: B1 VH
VL: B1 VL with W29L, N35W
notes: one-arm format as m2

ratio of amounts bound (vs GLS3000): 0.26
B35: GLS3000 N28Y (antibody, name in Kabat numbering, V domains shown)
VH: B1 VH
VL: B1 VL with W29L, N33Y
notes: one-arm format as m2

ratio of amounts bound (vs GLS3000): 0.36
B36: GLS3000 N28V (antibody, name in Kabat numbering, V domains shown)
VH: B1 VH
VL: B1 VL with W29L, N33V
notes: one-arm format as m2

ratio of amounts bound (vs GLS3000): 0.25
B37: GLS3000 N28A (antibody, name in Kabat numbering, V domains shown)
VH: B1 VH
VL: B1 VL with W29L, N33A
notes: one-arm format as m2

ratio of amounts bound (vs GLS3000): 1.05
B38: GLS3000 L33V (antibody, name in Kabat numbering, V domains shown)
VH: B1 VH
VL: B1 VL with W29L, L38V
notes: one-arm format as m2

ratio of amounts bound (vs GLS3000): 0.17
B39: GLS3000 L33D (antibody, name in Kabat numbering, V domains shown)
VH: B1 VH
VL: B1 VL with W29L, L38D
notes: one-arm format as m2

ratio of amounts bound (vs GLS3000): 0.5
B40: GLS3000 N30A (antibody, name in Kabat numbering, V domains shown)
VH: B1 VH
VL: B1 VL with W29L, N35A
notes: one-arm format as m2

ratio of amounts bound (vs GLS3000): 0.42
B41: GLS3000 N28H (antibody, name in Kabat numbering, V domains shown)
VH: B1 VH
VL: B1 VL with W29L, N33H
notes: one-arm format as m2

ratio of amounts bound (vs GLS3000): 1.1
B42: GLS3000 N30F (antibody, name in Kabat numbering, V domains shown)
VH: B1 VH
VL: B1 VL with W29L, N35F
notes: one-arm format as m2

ratio of amounts bound (vs GLS3000): 0.39
B43: GLS3000 N28L (antibody, name in Kabat numbering, V domains shown)
VH: B1 VH
VL: B1 VL with W29L, N33L
notes: one-arm format as m2

ratio of amounts bound (vs GLS3000): 0.61
B44: GLS3000 N53A (antibody, name in Kabat numbering, V domains shown)
VH: B1 VH
VL: B1 VL with W29L, N58A
notes: one-arm format as m2

ratio of amounts bound (vs GLS3000): 0.34
B45: GLS3000 N30D (antibody, name in Kabat numbering, V domains shown)
VH: B1 VH
VL: B1 VL with W29L, N35D
notes: one-arm format as m2

ratio of amounts bound (vs GLS3000): 0.37
B46: GLS3000 N28Q (antibody, name in Kabat numbering, V domains shown)
VH: B1 VH
VL: B1 VL with W29L, N33Q
notes: one-arm format as m2
